In publication PMC3606058 (Structure (London, England : 1993), 2013):

Molecular target: T1, Pf Cmr2dHD (Pf1129), HD-domain-deleted Cmr2, N-terminally poly-histidine tagged (Pyrococcus furiosus, UniProt Q8U1S6 213-871)
T1 sequence (looked up): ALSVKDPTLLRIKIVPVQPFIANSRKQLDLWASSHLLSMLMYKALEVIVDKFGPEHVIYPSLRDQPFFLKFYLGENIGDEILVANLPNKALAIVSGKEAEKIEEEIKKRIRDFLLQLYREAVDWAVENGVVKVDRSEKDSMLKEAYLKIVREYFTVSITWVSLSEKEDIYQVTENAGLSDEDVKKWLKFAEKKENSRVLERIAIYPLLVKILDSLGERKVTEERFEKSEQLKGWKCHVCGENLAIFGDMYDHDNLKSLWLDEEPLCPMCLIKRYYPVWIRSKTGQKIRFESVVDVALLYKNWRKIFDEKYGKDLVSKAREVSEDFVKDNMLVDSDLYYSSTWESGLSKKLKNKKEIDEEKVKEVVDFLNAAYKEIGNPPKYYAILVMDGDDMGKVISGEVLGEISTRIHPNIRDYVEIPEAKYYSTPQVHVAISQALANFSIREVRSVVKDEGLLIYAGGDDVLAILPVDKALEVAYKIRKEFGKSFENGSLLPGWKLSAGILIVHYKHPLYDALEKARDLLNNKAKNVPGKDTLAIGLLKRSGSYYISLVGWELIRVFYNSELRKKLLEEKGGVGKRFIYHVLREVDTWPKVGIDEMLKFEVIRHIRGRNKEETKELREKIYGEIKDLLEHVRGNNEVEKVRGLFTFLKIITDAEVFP
Assay: crystal structure

B1: Pf Cmr3 (Pf1128), untagged (natural protein, Pyrococcus furiosus)
chain: MIEVTFTPYDVLLFRESRPFDAGSESVARSIIPLPQTVAGAIRTLLFYKGLKNCVGVGEEEPEFTLVGIAIGTEKGRIYPLPFNIIKSEKFYKVVNPGRFLGKLILPPKGKYKSGYVTESILEKYLKGELKEVEENKVIRIEKEKRIGIKLSREKKVVEEGMLYTVEFLRIEKIYAWIEDPGCGIKDILSSYEFLTLGGESRVAFVEVDDKTPDIFNRELGSTKKALFYFSTPTIGKVGEIVQELEKRLNAKIDDYLLVSSRPTAISGWDMHEKKPKGTKFAIPPGSVLFVEFKEEVEVPPYIKLGKLKKLGYGLALGGIWE
stoichiometry N: 1 Cmr3:Cmr2dHD
